Tests used:
[1] = test system: hZP3-positive B16-HLA-A2 melanoma tumor; assay: Therapeutic immunization of HLA-A2 transgenic mice with ZP3-expressing tumor: tumor size; assay type: in vivo; details: female HLA-A2 transgenic mice, ZP3 expressing tumors, 2 s.c. immunizations (prime D7-10, boost D14-17) plus GM-CSF/CpG, tumor size increased with PBS
Protocol: (§1) FIG. 5: Schedule for administration of hZP3-positive B16-HLA-A2 melanoma tumor cells and an hZP3 peptide-mixture (comprising peptides 4, 5, 6, 8 and 9 in Table 5), or rhZP3^1-383 protein to HLA-A2 transgenic mice. On Day 0 (D0), a tumor injection with 10^6 cells/mouse was given subcutaneously (s.c.). Thereafter, the prime injection was administered 7 to 10 days (D7-10) and a boost injection on Day 14 to Day 17 (D14-17). Tumor size was monitored after treatment. At Day 30 to 35, mice were sacrificed to determine hZP3 specific CD8^+ responses (ELISpot).
An in vivo pre-clinical efficacy study has been conducted to assess the immune response and the anti-tumor response after immunization with rhZP3 polypeptide (aa 1-383 with his-tag) and 5 different ZP3 epitopes. The hZP3 epitopes were selected based on CD8^+ T cell responses observed during previously performed immunogenicity experiments with rhZP3 polypeptide (aa 1-383) and with pools of peptides comprising hZP3 epitopes as indicated (see Table 5) combined with different adjuvants (data not shown). The peptides were synthesized by Pepscan (the Netherlands) at a purity >96%. […]
(§2) On Day 0 (DO), a tumor injection with 10^6 cells/mouse (s.c.) was given. […] Tumor size was monitored after treatment. […]

[2] = test system: hZP3 specific CD8^+ responses; assay: ZP3 specific CD8+ T cell response after immunization (interferon-γ ELISpot); assay type: in vivo; details: HLA-A2 transgenic mice with ZP3 expressing tumors, after prime and boost immunization plus GM-CSF/CpG, Day 30 to 35
Protocol: as §1
FIG. 7: CD8^+ T cell responses as determined by interferon-γ (IFNg) ELISpot as measured against the peptides (all 5 or peptides 4, 5, 6, 8 or 9 individually) after immunization with the mixture of the 5 hZP3 peptides (peptide), or after immunization with the rhZP3^1-383 protein ZP3 (prot).
An in vivo pre-clinical efficacy study has been conducted to assess the immune response and the anti-tumor response after immunization with rhZP3 polypeptide (aa 1-383 with his-tag) and 5 different ZP3 epitopes. […]
as §2

[3] = listed as hZP3 polypeptide (aa 1-383)

B1: rhZP3 protein: rhZP3 polypeptide (aa 1-383 with his-tag), 100 μg s.c. plus GM-CSF/CpG as adjuvant (protein)
chain: QPLWLLQGGASHPETSVQPVLVECQEATLMVMVSKDLFGTGKLIRAADLTLGPEACEPLVSMDTEDVVRFEVGLHECGNSMQVTDDALVYSTFLLHDPRPVGNLSIVRTNRAEIPIECRYPRQGNVSSQAILPTWLPFRTTVFSEEKLTFSLRLMEENWNAEKRSPTFHLGDAAHLQAEIHTGSHVPLRLFVDHCVATPTPDQNASPYHTIVDFHGCLVDGLTDASSAFKVPRPGPDTLQFTVDVFHFANDSRNMIYITCHLKVTLAEQDPDELNKACSFSKPSNSWFPVEGSADICQCCNKGDCGTPSHSRRQPHVMSQWSRSASRN
[1]
  Tumor size after treatment: no growth of the tumor was observed
[1]; [3]
  Tumor size after treatment: no increase in tumor size was observed
[2]; listed as ZP3 protein
  CD8^+ T cell response (IFNg ELISpot): a TCD8 response was observed
[2]; [3]
  CD8^+ T cell response (IFNg ELISpot): induced CD8^+ T cells

Reference: patent US11819542B2, “Immunotherapeutic method for treating lung cancer by administering a polypeptide comprising an epitope of hZP3” (Pantarhei Bioscience B.V., priority 2017, dated 2023)
